The assay has as its target T1, mature wild-type mirolysin (Tannerella forsythia, UniProt A0A0F7IPS1 55-331).
T1 construct: the model holds Pro58-Pro327; Holds one catalytic zinc and two calcium ions; disulfides Cys243-Cys271 and Cys262-Cys291; The promirolysin constructs were made in E. coli BL21 (DE3) as fusions with N-terminal GST and a PreScission site; also called mature mirolysin; CD; source: recombinant, prepared as previously described (Koneru et al., 2017)
Kind of assay: crystal structure; mature mirolysin incubated at 1:2 molar ratio with BFO_2662, which was cleaved; sitting drop, 4 °C, protein ~12 mg/ml in 5 mM Tris HCl, 50 mM NaCl, 5 mM CaCl2, pH 8.0; reservoir 40% ethanol, 5% PEG 1000, 0.1 M phosphate-citrate pH 4.2; 1.5 Å; one complex per asymmetric unit. The conditions noted are these: both partners purified.

B1: tetradecapeptide K110-K123 of small lipoprotein BFO_2662 (peptide)
peptide: KRDPVYFIKLSTIK
notes: segment K110-K123 of small lipoprotein BFO_2662, Tannerella forsythia; numbered Lys1-Lys14 in the structure; only the first seven residues were assigned unambiguously from the map; A citrate (CIT-1) in sub-site S1 belongs to molecule B of the model but is no part of the peptide; also called Lys1-Lys14; product; source: cleavage product of BFO_2662, cut by mirolysin during crystallization …
For B1, the binding result is listed as “binds”.

The record behind these values is publication PMC6949598, “Structure-based mechanism of cysteine-switch latency and of catalysis by pappalysin-family metallopeptidases” (IUCrJ, 2020).
